Laboratory results reported in paper PMC7137648.
Like-named read-outs stand apart in the source and are kept apart here. One block for each substance: values may come before it.

Columns and labels:
[1] = target: complement protein C1q (human) (UniProt P02745); assay: SPR; N-glycosylation site mutants of SR-F1(20-421) with C1q (Figures S5A-C), n = 2; which partner was immobilised is not told in the text shown; apparent affinity
C1q (Homo sapiens) [2] = target: C1q (Homo sapiens) (UniProt P02745); conditions: cited from earlier work
C1q (Homo sapiens), sequence (P02745 23-245, chain 1 of 3): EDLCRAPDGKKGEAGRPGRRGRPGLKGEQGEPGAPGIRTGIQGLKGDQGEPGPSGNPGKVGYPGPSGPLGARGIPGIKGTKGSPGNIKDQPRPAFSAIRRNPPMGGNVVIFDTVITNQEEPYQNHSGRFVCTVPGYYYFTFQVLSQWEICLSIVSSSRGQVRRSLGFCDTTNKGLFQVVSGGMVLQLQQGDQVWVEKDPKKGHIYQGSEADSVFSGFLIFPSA
C1q (Homo sapiens), sequence (P02746 28-253, chain 2 of 3, further chain): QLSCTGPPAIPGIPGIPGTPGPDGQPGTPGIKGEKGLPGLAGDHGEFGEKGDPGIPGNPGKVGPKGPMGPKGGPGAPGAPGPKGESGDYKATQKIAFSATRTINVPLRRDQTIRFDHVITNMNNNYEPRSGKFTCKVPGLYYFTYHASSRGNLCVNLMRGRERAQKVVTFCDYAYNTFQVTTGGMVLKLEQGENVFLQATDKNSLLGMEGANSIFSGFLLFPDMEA
C1q (Homo sapiens), sequence (P02747 29-245, chain 3 of 3, further chain): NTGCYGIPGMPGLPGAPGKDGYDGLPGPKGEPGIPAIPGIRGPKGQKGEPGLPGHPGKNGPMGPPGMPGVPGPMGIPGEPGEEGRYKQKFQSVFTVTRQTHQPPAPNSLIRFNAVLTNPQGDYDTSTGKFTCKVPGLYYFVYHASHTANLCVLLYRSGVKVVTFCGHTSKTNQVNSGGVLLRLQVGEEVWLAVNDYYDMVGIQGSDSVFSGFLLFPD

C1q (Homo sapiens) [3] = target: C1q (Homo sapiens) (UniProt P02745); conditions: cited from earlier work; remark: listed apart in the source

calreticulin, sequence (P27797 18-417): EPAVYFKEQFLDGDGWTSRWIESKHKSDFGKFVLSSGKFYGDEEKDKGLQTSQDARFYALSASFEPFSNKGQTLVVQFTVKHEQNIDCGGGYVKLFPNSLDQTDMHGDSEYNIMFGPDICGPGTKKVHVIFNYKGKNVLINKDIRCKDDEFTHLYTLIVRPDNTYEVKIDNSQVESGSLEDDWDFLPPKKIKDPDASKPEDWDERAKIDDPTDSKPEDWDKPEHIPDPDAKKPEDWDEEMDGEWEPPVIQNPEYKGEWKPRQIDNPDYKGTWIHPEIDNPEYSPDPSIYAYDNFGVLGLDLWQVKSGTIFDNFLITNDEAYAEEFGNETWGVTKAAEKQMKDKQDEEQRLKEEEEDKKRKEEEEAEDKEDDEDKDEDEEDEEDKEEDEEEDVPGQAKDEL
SR-F1 ECD, sequence (Q14162 20-421): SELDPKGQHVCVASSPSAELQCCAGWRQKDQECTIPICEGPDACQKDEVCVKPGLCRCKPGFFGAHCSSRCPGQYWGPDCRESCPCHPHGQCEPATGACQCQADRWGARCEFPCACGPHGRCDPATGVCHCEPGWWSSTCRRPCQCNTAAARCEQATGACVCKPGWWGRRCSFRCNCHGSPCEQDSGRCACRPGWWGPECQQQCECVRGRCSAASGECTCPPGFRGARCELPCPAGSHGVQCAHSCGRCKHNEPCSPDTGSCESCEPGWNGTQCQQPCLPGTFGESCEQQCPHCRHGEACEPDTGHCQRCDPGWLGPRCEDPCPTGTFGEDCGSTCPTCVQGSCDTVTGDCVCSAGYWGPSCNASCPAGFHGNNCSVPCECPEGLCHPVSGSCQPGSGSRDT
complement protein C1q (human), sequence (P02745 23-245, chain 1 of 3): as the sequence (P02745 23-245, chain 1 of 3) above
complement protein C1q (human), sequence (P02746 28-253, chain 2 of 3, further chain): as the sequence (P02746 28-253, chain 2 of 3, further chain) above
complement protein C1q (human), sequence (P02747 29-245, chain 3 of 3, further chain): as the sequence (P02747 29-245, chain 3 of 3, further chain) above

- Kd [1]: 0.581 µM
Substance: SR-F1(20-421) N289Q (from UniProt Q14162 20-421) (domain or fragment)

Substance: SR-F1 ECD (from UniProt Q14162)
- Kd (C1q (Homo sapiens) [2]): 0.124 µM

Substance: calreticulin (from UniProt P27797)
- Kd (C1q (Homo sapiens) [3]): 0.12 µM
